# Test results published in publication PMC10641286.
# Read-outs that look alike come from different tables or passages of the source.
# Tests used:
# cathepsin G [1] = biological target: cathepsin G (UniProt P08311); assay: second-order rate constant of inhibition, discontinuous method (residual enzymatic activity); rIxsS41 25-300 nM (chymase) or 100-1600 nM (cathepsin G) pre-incubated 0-15 min at 37°C with constant protease (0.1 µg); kobs plotted against rIxsS41
# chymase [2] = biological target: chymase (UniProt P23946); assay: as above
# trypsin IV = trypsin IV (UniProt P35030)
# cathepsin G [3] = biological target: cathepsin G (UniProt P08311)
# chymase [4] = biological target: chymase (UniProt P23946)
# chymase [5] = biological target: chymase (UniProt P23946); remark: listed apart in the source
# cathepsin G [6] = biological target: cathepsin G (UniProt P08311); assay: second-order rate constant of inhibition, discontinuous method (residual enzymatic activity); rIxsS41 25-300 nM (chymase) or 100-1600 nM (cathepsin G) pre-incubated 0-15 min at 37°C with constant protease (0.1 µg); kobs plotted against rIxsS41; remark: listed apart in the source
# chymase [7] = biological target: chymase (UniProt P23946); assay: as above; remark: listed apart in the source
# cathepsin G [8] = biological target: cathepsin G (UniProt P08311); assay: stoichiometry of inhibition (residual enzymatic activity, colorimetric substrate); various concentrations of rIxsS41 (molar ratios 0-10) with a constant concentration of protease, 1 h at 37°C; linear regression of the inhibitory curve; conditions: scale: molecules of rIxsS41 per molecule of protease
# chymase [9] = biological target: chymase (UniProt P23946); assay: as above; conditions: scale: molecules of rIxsS41 per molecule of protease
# Chain of UniProt P08311 (P08311 21-244): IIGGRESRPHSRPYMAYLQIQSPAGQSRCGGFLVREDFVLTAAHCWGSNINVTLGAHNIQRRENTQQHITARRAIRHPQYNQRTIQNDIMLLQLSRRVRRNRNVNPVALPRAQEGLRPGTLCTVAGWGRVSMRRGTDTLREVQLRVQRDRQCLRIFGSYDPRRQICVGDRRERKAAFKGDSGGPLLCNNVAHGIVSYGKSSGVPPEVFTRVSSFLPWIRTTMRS
# Chain of UniProt P23946 (P23946 22-247): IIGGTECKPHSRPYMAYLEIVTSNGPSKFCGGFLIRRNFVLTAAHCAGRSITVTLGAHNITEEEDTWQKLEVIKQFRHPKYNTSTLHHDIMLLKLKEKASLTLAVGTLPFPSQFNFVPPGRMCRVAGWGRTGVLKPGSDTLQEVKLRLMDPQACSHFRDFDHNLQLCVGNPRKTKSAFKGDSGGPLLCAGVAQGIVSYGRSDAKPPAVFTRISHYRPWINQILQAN
# Chain of UniProt P35030 (P35030 81-304): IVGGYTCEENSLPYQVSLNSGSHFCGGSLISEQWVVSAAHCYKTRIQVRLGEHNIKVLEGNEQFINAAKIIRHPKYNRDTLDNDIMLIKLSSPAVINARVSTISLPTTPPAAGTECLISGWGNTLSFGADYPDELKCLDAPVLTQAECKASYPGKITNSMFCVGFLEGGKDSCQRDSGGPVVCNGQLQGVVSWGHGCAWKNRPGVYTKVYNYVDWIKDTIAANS
substance,measurement,setting,value
recombinant Ixodes scapularis nymph tick saliva serpin 41 (rIxsS41) (natural protein),ka (second-order rate constant of inhibition),cathepsin G [1],2400 M⁻¹ s⁻¹
same,ka (second-order rate constant of inhibition),chymase [2],6600 M⁻¹ s⁻¹
same,"inhibition of enzymatic activity (chromogenic substrate hydrolysis), rIxsS41 1 µM, trypsin IV 12.5 nM, pre-incubated 15 min at 37°C",trypsin IV,100%
same,"inhibition of enzymatic activity (chromogenic substrate hydrolysis), rIxsS41 1 µM, cathepsin G 154.4 nM, pre-incubated 15 min at 37°C",cathepsin G [3],100%
same,"inhibition of enzymatic activity (chromogenic substrate hydrolysis), rIxsS41 1 µM, chymotrypsin 25.7 nM, pre-incubated 15 min at 37°C",chymotrypsin,100%
same,"inhibition of enzymatic activity (chromogenic substrate hydrolysis), rIxsS41 1 µM, chymase 34.2 nM, pre-incubated 15 min at 37°C",chymase [4],100%
same,"inhibition of enzymatic activity (chromogenic substrate hydrolysis), rIxsS41 1 µM, thrombin 19.8 nM, pre-incubated 15 min at 37°C",thrombin,100%
same,"inhibition of enzymatic activity (chromogenic substrate hydrolysis), rIxsS41 1 µM, pancreatic trypsin 0.5 nM, pre-incubated 15 min at 37°C",pancreatic trypsin,100%
same,"C48/80-induced (chymase-mediated) paw edema in BALB/c mice, co-injection of C48/80 (1 µg) with rIxsS41 (25 µg); the chymase is the mouse's own",chymase [5],85%
same,ka (second-order rate constant of inhibition),cathepsin G [6],1700 M⁻¹ s⁻¹
same,ka (second-order rate constant of inhibition),chymase [7],2400 M⁻¹ s⁻¹
same,stoichiometry of inhibition (SI),cathepsin G [8],2.2
same,stoichiometry of inhibition (SI),chymase [9],2.8
